Assay results taken from the DeepSol protein solubility set.

assay: soluble on expression in E. coli; label from the status in PepcDB or PDB records

Soluble on expression in E. coli, not soluble:
MGSDKIHHHHHHMAIETILVINKSGGLIYQRNFTNDEQKLNSNEYLILASTLHGVFAIASQLTPKALQLTQQTNIENTIPYIPYVGMSSNRSDTRNGGGNNNKHTNNEKLGSFKGDDFFKEPFTNWNKSGLRQLCTDQFTMFIYQTLTGLKFVAISSSVMPQRQPTIATTDKPDRPKSTSNLAIQIADNFLRKVYCLYSDYVMKDPSYSMEMPIRSNLFDEKVKKMVENLQ
MAHHHHHHMYKYEKLYFFMCWKKCRFNNLTKVFLHSSNDYYNNLNVIKKEKGIFEKLLCIGNYNVDNFCFDKELYEKYRECIKNDYEKIRIKLKERKQNEYNNIHSKNLEHNESNICNNNNNNNINVYESYLYNIIQNNDYKDILISDVIYENGKNILCIGEANLSFSLLLQKNLNLCKVVSTSREDESVLIKKFGKKYFSKNLKLLESSGGIYIPNMNVENLSNQFLKNTFDIIIFNFPFVLPTKECIEKKWNIKLEREEIYSDNLKNETNSNNNSNSNNNNKSNNNNGNNNSSNNVYIKYYKKTEYFLLNKLIYHLFKCASHLLKNEGFLHIRLNDKYLTCSFPKNMSLSFLQKIDFSNSYIIYKSLKYVPSLFDCTFLNYEDKKKEKTKNNVIFTSSGKKIFKSFKMKHTSTLIFQKI
MVMSKYTQEQIKNLVEGNLDWNTVLKMLSMPKDHERFQMYLKVLQDKVDFDDKIVLPLGPHLFVVQDAQKKWVIKCSCGHAFCAPEENWKLHANIYVRDTAEKMEEVYPKLLASDTHWQVYREYICPDCGILLDVEAPTPWYPVIHDFEPDIEVFYKDWLGIQPPERR

Soluble on expression in E. coli, soluble:
MPILEKAPQKMPVKASSWEELDLPKLPVPPLQQTLATYLQCMQHLVPEEQFRKSQAIVKRFGAPGGLGETLQEKLLERQEKTANWVSEYWLNDMYLNNRLALPVNSSPAVIFARQHFQDTNDQLRFAACLISGVLSYKTLLDSHSLPTDWAKGQLSGQPLCMKQYYRLFSSYRLPGHTQDTLVAQKSSIMPEPEHVIVACCNQFFVLDVVINFRRLSEGDLFTQLRKIVKMASNEDERLPPIGLLTSDGRSEWAKARTVLLKDSTNRDSLDMIERCICLVCLDGPGTGELSDTHRALQLLHGGGCSLNGANRWYDKSLQFVVGRDGTCGVVCEHSPFDGIVLVQCTEHLLKHMMTSNKKLVRADSVSELPAPRRLRWKCSPETQGHLASSAEKLQRIVKNLDFIVYKFDNYGKTFIKKQKYSPDGFIQVALQLAYYRLYQRLVPTYESASIRRFQEGRVDNIRSATPEALAFVQAMTDHKAAMPASEKLQLLQTAMQAQTEYTVMAITGMAIDNHLLALRELARDLCKEPPEMFMDETYLMSNRFVLSTSQVPTTMEMFCCYGPVVPNGYGACYNPQPEAITFCISSFHSCKETSSVEFAEAVGASLVDMRDLCSSRQPADSKPPAPKEKARGPTKPSNLDSSH
MGSDKIHHHHHHMIGDMNELLLKSVEVLPPLPDTVSKLRKYVSEANSNIETMKVAEIISSDPLMTAKLLQLANSPYYGFTREITTINQVITLLGVGNIINIVMADSIRDNFKIDVSPYGLNTQNFLKTCNEEATFIANWLNDEDKKLSHLLVPCAMLLRLGIVIFSNFLIQNHKDKDFLAFLNKNENLALAENEFLGVDHISFLGFLLHRWNFDDVLIESICFVRTPHAAREKVKKSAYALAITDHLFAPHDGSSPFNAKAAVALLKEAKTQGINFDLNNLLSKLPNKAKENLNKED
MRECISIHVGQAGVQIGNACWELYCLEHGIQPDGQMPSDKTIGGGDDSFNTFFSETGAGKHVPRAVFVDLEPTVIDEVRTGTYRQLFHPEQLITGKEDAANNYARGHYTIGKEIIDLVLDRIRKLADQCTGLQGFSVFHSFGGGTGSGFTSLLMERLSVDYGKKSKLEFSIYPAPQVSTAVVEPYNSILTTHTTLEHSDCAFMVDNEAIYDICRRNLDIERPTYTNLNRLIGQIVSSITASLRFDGALNVDLTEFQTNLVPYPRAHFPLATYAPVISAEKAYHEQLSVAEITNACFEPANQMVKCDPRHGKYMACCLLYRGDVVPKDVNAAIATIKTKRTIQFVDWCPTGFKVGINYEPPTVVPGGDLAKVQRAVCMLSNTTAIAEAWARLDHKFDLMYAKRAFVHWYVGEGMEEGEFSEAREDMAALEKDYEEVGVDSVEGEGEEEGEEY
MSLNVDLHCHSTASDGALSPSVLVARAHEHGVQALALTDHDTLEGLPEARQACVDLGMRWVSGVELSCTWGGATIHVLGYDFPLDAPPLLAAIQALHHGRWLRAEEIDRRLAAKGMPGTLEGARAVQHELGDSGNAPARPHFAEYLVRAGHVKDRGEAFRKWLGAGKLGDVKQHWPTLDETVATLRQSNAWVSLAHPMHYDLTRSKRRRLIADYIQAGGQALEVVNGMMPAEQVGTMSILAREFGLLASAGSDFHGPGTWGEIGAYRPLPEDLPPLWRRFSHEEGHHHHHH
